# Assay results from article PMC13022406, “Amino acid and viral binding by the high-affinity Cationic Amino acid Transporter 1 (CAT1) from Mus musculus” (Nature Communications, 2026).
# B1: Cationic Amino acid Transporter 1 (CAT1) from Mus musculus, purified (receptor)
# chain: not shown
# modifications: N-linked glycans at Asn223 and Asn229
# B2: Friend Murine Leukemia Virus receptor binding domain (domain or fragment, UniProt P03390 35-270, looked up)
# chain: AAPGSSPHQVYNITWEVTNGDRETVWAISGNHPLWTWWPVLTPDLCMLALSGPPHWGLEYQAPYSSPPGPPCCSGSSGSSAGCSRDCDEPLTSLTPRCNTAWNRLKLDQVTHKSSEGFYVCPGSHRPREAKSCGGPDSFYCASWGCETTGRVYWKPSSSWDYITVDNNLTTSQAVQVCKDNKWCNPLAIQFTNAGKQVTSWTTGHYWGLRLYVSGRDPGLTFGIRLRYQNLGPRVP
# modifications: N-linked glycans at Asn46 and Asn202
# notes: the previously crystallized construct (PDB 1AOL); Residues 43-265 were built in the cryo-EM model; also called FrMLV-RBD; source: adherent HEK293T cells (lentiviral expression), secreted, purified (Ni-NTA, SEC)
# How the values were obtained:
# [1] = biological target: B2; experiment: BLI; MmCAT1 (100 nM, twin-strep and GFP tag) loaded on Strep-Tactin XT probes (Gator Pivot); FrMLV-RBD at 2.7 uM, 900, 300, 100 and 33.3 nM; 25 mM HEPES pH 7.5, 125 mM NaCl, 0.003% LMNG, 0.0006% CHS; room temperature; 5 min association, 5 min dissociation; details: both partners purified
# [2] = biological target: B1; experiment: cryo-EM structure; MmCAT1:FrMLV-RBD complex purified by SEC in LMNG/CHS; apo and with 34 mM arginine, 20 mM lysine or 20 mM ornithine; details: both partners purified
Binder,Kd [1] [nM],stoichiometry N [2]
B1,9.7,
B2,,1
